Measured values from patent US9994881B2, “Functionalized carboxylic acids and alcohols by reverse fatty acid oxidation in engineered microbes” (William Marsh Rice University, priority 2011, dated 2018).
Marks after values point to notes of the source that are not given here.

Columns and labels:
Type in all cases: biochemical
[1] = forward thiolase assay (biosynthetic direction), coupled with caHBD; details: substrate Acetyl-CoA; supernatant fraction; AtoB expressed from pCA24N, FadA from pUCBB-ntH6
Procedure: (§1) Cultures for enzymatic assays were grown overnight in 100 mL of LB media at 37° C. in 250 mL baffled flasks (Wheaton Industries, Inc., Millville, N.J.) in E. coli BL21 (DE3) cells induced with either 1 mM IPTG (pCA24N, pTrcHis2A) or 1 mM Arabinose (pUCBB-pBAD) at an OD600˜0.6, or expressed constitutively (pUCBB-ntH6). Reactions were monitored on either a Synergy HT plate reader (BioTek Instruments, Inc., Winooski, Vt.) at 25° C. (for reactions monitored at 300 nm or higher) or in a Biomate 5 Spectrophotometer (Thermo Scientific, Waltham, Mass.) for reactions at 263 nm. […]
(§2) For kinetic characterization, his-tagged proteins of AtoB, FadA, FadB, caHBD, egTER were purified from the B-PER supernatant fractions using Talon Metal Affinity Resin (Clontech Laboratories, Inc., Mountain View, Calif.) using gravity purification. […] Enzyme concentration was established by measuring the absorbance at […] and extinction coefficients predicted for each enzyme by the ProtParam program (web.expasy.org/protparam/).
(§3) For kinetic characterization, an appropriate amount of enzyme was established by checking linear range near predicted KM values. Then, the rates were measured for a range of substrates in order to establish kcat and KM. […]

[2] = thiolase activity in the reverse direction (loss of acetoacetyl-CoA at 303 nm); details: substrate Acetoacetyl-CoA; supernatant fraction; AtoB expressed from pCA24N, FadA from pUCBB-ntH6
Procedure: as §1, §2, §3

[3] = β-hydroxybutyryl-CoA dehydrogenase assay (NADH dependent reduction of acetoacetyl-CoA)
Procedure: as §1, §2, §3

[4] = Butyryl-CoA dehydrogenase activity utilizing ferricenium ion
Procedure: Cells were lysed using Bacterial Protein Extraction Reagent (B-PER) (Thermo Scientific, Waltham, Mass.) as per the prescribed protocol in order to obtain the supernatant containing the active enzymes. FadE and YdiO were purified following previously established methods^45 using the same growth conditions mentioned above.
Cell pellets were resuspended in 40 mL of 50 mM potassium phosphate buffer pH 7.2 and broken by disruption EmulsiFlex-05 homogenizer (Avestin, Ottawa, ON). Disrupted cells were then spun for 90 min at 4° C. at 120,000×g in a Optima L-80XP Ultracentrifuge (Beckman-Coulter, Schaumburg, Ill.) to produce the supernatant used for assays.
For specific activity assays (reported in μmol substrate/mg protein/min) these supernatant fractions were utilized and protein concentration was established using the Bradford Reagent (Thermo Scientific, Waltham, Mass.) using BSA as the protein standard. Linearity was established for each reaction and the background non-enzymatic rate was subtracted to establish the activity.
For FadE and YdiO, Butyryl-CoA dehydrogenase activity was measured utilizing ferricenium ion^49. Reactions were performed in 50 mM potassium phosphate pH 7.2, 0.4 mM MgSO4, 200 μM ferrocenium hexafluorophosphate, and 200 μM Butyryl-CoA and monitored the formation of the reduced ferrocene ion at 300 nm (ε=4.3 mM^−1 cm^−1).

[5] = crotonyl-CoA reductase activity (loss of NADH absorbance); details: substrate Crotonyl-CoA; supernatant fraction; expressed from pTrcHis2A
Procedure: as §1, §2, §3

[6] = crotonase activity (loss of crotonoyl-CoA at 263 nm); details: substrate Crotonyl-CoA; supernatant fraction; expressed from pUCBB-ntH6
Procedure: as §1, §2, §3

B1: FadA: E. coli 3-ketoacyl-CoA thiolase (thiolase I), a component of fatty acid oxidation complex FadAB (protein, UniProt P21151 1-387, looked up)
3-ketoacyl-CoA thiolase FadA: MEQVVIVDAIRTPMGRSKGGAFRNVRAEDLSAHLMRSLLARNPALEAAALDDIYWGCVQQTLEQGFNIARNAALLAEVPHSVPAVTVNRLCGSSMQALHDAARMIMTGDAQACLVGGVEHMGHVPMSHGVDFHPGLSRNVAKAAGMMGLTAEMLARMHGISREMQDAFAARSHARAWAATQSAAFKNEIIPTGGHDADGVLKQFNYDEVIRPETTVEALATLRPAFDPVNGMVTAGTSSALSDGAAAMLVMSESRAHELGLKPRARVRSMAVVGCDPSIMGYGPVPASKLALKKAGLSASDIGVFEMNEAFAAQILPCIKDLGLIEQIDEKINLNGGAIALGHPLGCSGARISTTLLNLMERKDVQFGLATMCIGLGQGIATVFERV
Specific Activity [1]: Not detected^c
Specific Activity [2]: 0.013 ± 0.002^c μmol/mg/min

B2: paaH: E. coli 3-hydroxyadipyl-CoA dehydrogenase that participates in the degradation of phenylacetate (protein, UniProt P76083 1-475, looked up)
3-hydroxyadipyl-CoA …: MMINVQTVAVIGSGTMGAGIAEVAASHGHQVLLYDISAEALTRAIDGIHARLNSRVTRGKLTAETCERTLKRLIPVTDIHALAAADLVIEAASERLEVKKALFAQLAEVCPPQTLLTTNTSSISITAIAAEIKNPERVAGLHFFNPAPVMKLVEVVSGLATAAEVVEQLCELTLSWGKQPVRCHSTPGFIVNRVARPYYSEAWRALEEQVAAPEVIDAALRDGAGFPMGPLELTDLIGQDVNFAVTCSVFNAFWQERRFLPSLVQQELVIGGRLGKKSGLGVYDWRAEREAVVGLEAVSDSFSPMKVEKKSDGVTEIDDVLLIETQGETAQALAIRLARPVVVIDKMAGKVVTIAAAAVNPDSATRKAIYYLQQQGKTVLQIADYPGMLIWRTVAMIINEALDALQKGVASEQDIDTAMRLGVNYPYGPLAWGAQLGWQRILRLLENLQHHYGEERYRPCSLLRQRALLESGYES
specific activity toward the reduction of acetoacetyl-CoA ([3]; purified enzyme, data not shown): moderate

B3: FadE: E. coli acyl-CoA dehydrogenase, a medium-long-chain fatty acyl-CoA dehydrogenase (protein, UniProt Q47146 1-814, looked up)
Acyl-coenzyme A dehydrogenase: MMILSILATVVLLGALFYHRVSLFISSLILLAWTAALGVAGLWSAWVLVPLAIILVPFNFAPMRKSMISAPVFRGFRKVMPPMSRTEKEAIDAGTTWWEGDLFQGKPDWKKLHNYPQPRLTAEEQAFLDGPVEEACRMANDFQITHELADLPPELWAYLKEHRFFAMIIKKEYGGLEFSAYAQSRVLQKLSGVSGILAITVGVPNSLGPGELLQHYGTDEQKDHYLPRLARGQEIPCFALTSPEAGSDAGAIPDTGIVCMGEWQGQQVLGMRLTWNKRYITLAPIATVLGLAFKLSDPEKLLGGAEDLGITCALIPTTTPGVEIGRRHFPLNVPFQNGPTRGKDVFVPIDYIIGGPKMAGQGWRMLVECLSVGRGITLPSNSTGGVKSVALATGAYAHIRRQFKISIGKMEGIEEPLARIAGNAYVMDAAASLITYGIMLGEKPAVLSAIVKYHCTHRGQQSIIDAMDITGGKGIMLGQSNFLARAYQGAPIAITVEGANILTRSMMIFGQGAIRCHPYVLEEMEAAKNNDVNAFDKLLFKHIGHVGSNKVRSFWLGLTRGLTSSTPTGDATKRYYQHLNRLSANLALLSDVSMAVLGGSLKRRERISARLGDILSQLYLASAVLKRYDDEGRNEADLPLVHWGVQDALYQAEQAMDDLLQNFPNRVVAGLLNVVIFPTGRHYLAPSDKLDHKVAKILQVPNATRSRIGRGQYLTPSEHNPVGLLEEALVDVIAADPIHQRICKELGKNLPFTRLDELAHNALVKGLIDKDEAAILVKAEESRLRSINVDDFDPEELATKPVKLPEKVRKVEAA
activity upon purification ([4]; purified enzyme): no detectable activities
Specific Activity ([4]; substrate Butyryl-CoA, crude extract of cells, expressed from pCA24N): 0.008 ± 0.001^b μmol/mg/min

B4: egTER: NAD(P)H-dependent trans-2-enoyl-CoA reductase from Euglena gracilis (protein, UniProt Q5EU90 69-539, looked up)
Trans-2-enoyl-CoA reductase: VPQMAEGFSGEATSAWAAAGPQWAAPLVAAASSALALWWWAARRSVRRPLAALAELPTAVTHLAPPMAMFTTTAKVIQPKIRGFICTTTHPIGCEKRVQEEIAYARAHPPTSPGPKRVLVIGCSTGYGLSTRITAAFGYQAATLGVFLAGPPTKGRPAAAGWYNTVAFEKAALEAGLYARSLNGDAFDSTTKARTVEAIKRDLGTVDLVVYSIAAPKRTDPATGVLHKACLKPIGATYTNRTVNTDKAEVTDVSIEPASPEEIADTVKVMGGEDWELWIQALSEAGVLAEGAKTVAYSYIGPEMTWPVYWSGTIGEAKKDVEKAAKRITQQYGCPAYPVVAKALVTQASSAIPVVPLYICLLYRVMKEKGTHEGCIEQMVRLLTTKLYPENGAPIVDEAGRVRVDDWEMAEDVQQAVKDLWSQVSTANLKDISDFAGYQTEFLRLFGFGIDGVDYDQPVDVEADLPSAAQQ
Specific Activity [5]: 5.4 ± 0.6^d μmol/mg/min

B5: FadB: E. coli hydroxyacyl-CoA dehydrogenase and enoyl-CoA hydratase, part of fatty acid oxidation complex (protein, UniProt P21177 1-729, looked up)
Fatty acid oxidation complex …: MLYKGDTLYLDWLEDGIAELVFDAPGSVNKLDTATVASLGEAIGVLEQQSDLKGLLLRSNKAAFIVGADITEFLSLFLVPEEQLSQWLHFANSVFNRLEDLPVPTIAAVNGYALGGGCECVLATDYRLATPDLRIGLPETKLGIMPGFGGSVRMPRMLGADSALEIIAAGKDVGADQALKIGLVDGVVKAEKLVEGAKAVLRQAINGDLDWKAKRQPKLEPLKLSKIEATMSFTIAKGMVAQTAGKHYPAPITAVKTIEAAARFGREEALNLENKSFVPLAHTNEARALVGIFLNDQYVKGKAKKLTKDVETPKQAAVLGAGIMGGGIAYQSAWKGVPVVMKDINDKSLTLGMTEAAKLLNKQLERGKIDGLKLAGVISTIHPTLDYAGFDRVDIVVEAVVENPKVKKAVLAETEQKVRQDTVLASNTSTIPISELANALERPENFCGMHFFNPVHRMPLVEIIRGEKSSDETIAKVVAWASKMGKTPIVVNDCPGFFVNRVLFPYFAGFSQLLRDGADFRKIDKVMEKQFGWPMGPAYLLDVVGIDTAHHAQAVMAAGFPQRMQKDYRDAIDALFDANRFGQKNGLGFWRYKEDSKGKPKKEEDAAVEDLLAEVSQPKRDFSEEEIIARMMIPMVNEVVRCLEEGIIATPAEADMALVYGLGFPPFHGGAFRWLDTLGSAKYLDMAQQYQHLGPLYEVPEGLRNKARHNEPYYPPVEPARPVGDLKTA
Specific Activity ([3]; substrate Acetoacetyl-CoA, supernatant fraction, expressed from pUCBB-ntH6): 0.185 ± 0.001^c μmol/mg/min
Specific Activity [6]: 0.051 ± 0.004^c μmol/mg/min
